Experiments:
ADI-26919 = target: T1, ADI-26919; assay: SPR Carterra avidity, yeast anti-ID, *koff limit
T1 construct: anti-CD3 antibody made in CHO cells, captured by anti-human Fc
Procedure: (§1) Kinetic analysis was conducted at 25° C. in an HBSTE running buffer system (Carterra Cat #3630) using a Carterra LSA (Carterra USA, Salt Lake City, UT). The sample compartment was maintained at 20° C. for the duration of each experiment.
(§2) For antibody capture experiments, a goat anti-human Fc antibody (Jackson ImmunoResearch) was covalently coupled to an HC30M sensor chip surface via standard amine coupling (1:1 EDC:NHS) and then blocked with ethanolamine (1.0 M, pH 8.5). Covalent coupling steps were performed in 25 mM MES buffer (Carterra, Cat #3625) plus 0.05% Tween20. The anti-CD3 antibodies (100 nM in running buffer) were flowed over discrete regions of interest on the chip surface for 5 minutes. […] Dissociation of the anti-idiotype antibodies was monitored for 300s. Several blank buffer samples were injected over the entire chip surface at the start of each non-regenerative kinetic cycle. The preceding blank buffer injection was used for blank surface subtraction. At the end of each non-regenerative kinetic cycle, all surfaces were regenerated via two 30s injections of 10 mM glycine, pH 1.7.
(§3) For data processing and fitting, sensorgrams were double reference subtracted with a baseline drift correction of 4 RU. Sensorgrams were y-aligned and baseline corrected, filtered and cropped to include only the association and dissociation steps. Data was fitted to a 1:1 binding model using Carterra Kinetics Data Analysis software version 1.7.1.3055.

ADI-26924 = target: T2, ADI-26924; assay: SPR Carterra avidity, yeast anti-ID, *koff limit
T2 construct: anti-CD3 antibody made in CHO cells, captured by anti-human Fc
Procedure: as §1, §2, §3

ADI-76359 = target: T3, ADI-76359; assay: SPR Carterra avidity, yeast anti-ID, *koff limit
T3 construct: anti-CD3 antibody made in CHO cells, captured by anti-human Fc
Procedure: as §1, §2, §3

ADI-26943 = target: T4, ADI-26943; assay: SPR Carterra avidity, yeast anti-ID, *koff limit
T4 construct: anti-CD3 antibody made in CHO cells, captured by anti-human Fc
T4 sequence (VH, as listed by the source, chain 1 of 2): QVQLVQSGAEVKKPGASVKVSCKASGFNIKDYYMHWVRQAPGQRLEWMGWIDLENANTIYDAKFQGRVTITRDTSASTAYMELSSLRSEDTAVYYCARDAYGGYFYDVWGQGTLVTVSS
T4 sequence (VL, as listed by the source, chain 2 of 2): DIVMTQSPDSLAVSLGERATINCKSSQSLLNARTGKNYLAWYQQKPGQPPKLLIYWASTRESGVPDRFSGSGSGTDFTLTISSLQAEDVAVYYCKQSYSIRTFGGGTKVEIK
Procedure: as §1, §2, §3

ADI-26920 IgG = target: T5, ADI-26920 IgG; assay: SPR Carterra avidity, yeast anti-ID, *koff limit
T5 construct: anti-CD3 IgG
T5 sequence (VH, as listed by the source limits assumed, chain 1 of 2): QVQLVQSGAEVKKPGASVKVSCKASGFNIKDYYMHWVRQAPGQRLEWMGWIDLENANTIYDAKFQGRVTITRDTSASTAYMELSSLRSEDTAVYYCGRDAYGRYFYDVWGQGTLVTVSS
T5 sequence (VL, as listed by the source limits assumed, chain 2 of 2): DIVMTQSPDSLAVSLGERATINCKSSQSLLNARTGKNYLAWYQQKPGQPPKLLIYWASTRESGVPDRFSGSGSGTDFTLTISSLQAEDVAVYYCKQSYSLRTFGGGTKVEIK
Procedure: as §1, §2, §3

ADI-74967 = target: T6, ADI-74967; assay: SPR Carterra avidity, yeast anti-ID, *koff limit
T6 construct: pH-dependent anti-CD3 antibody made in CHO cells
Procedure: as §1, §2, §3

ADI-22523 IgG = target: T7, ADI-22523 IgG; assay: BLI; tip anti-ID IgG, solution ADI-22523 IgG
T7 construct: anti-CD3 IgG
Procedure: (§4) ForteBio affinity measurements were performed generally as previously described (Estep et al., MAbs. 2013 5(2):270-8). Briefly, ForteBio affinity measurements were performed by loading antibody IgG or Fabs on-line onto AHC sensors. Sensors were equilibrated off-line in assay buffer for 30 minutes and then monitored on-line for 60 seconds for baseline establishment. For avid binding measurement, sensors with loaded antibodies were exposed to IgG or Fab solutions for 3 minutes, afterwards they were transferred to assay buffer for 3 minutes for off-rate measurement. Kinetics data were fit using a 1:1 binding model in the data analysis software provided by ForteBio to obtain equilibrium dissociation constant (KD=koff/kₒₙ) values. In each column, tip-immobilized antibodies are listed first and solution antibodies second.

ADI-26913 IgG = target: T8, ADI-26913 IgG; assay: SPR Carterra avidity, yeast anti-ID
T8 construct: anti-CD3 IgG
T8 sequence (VH, as listed by the source limits assumed, chain 1 of 2): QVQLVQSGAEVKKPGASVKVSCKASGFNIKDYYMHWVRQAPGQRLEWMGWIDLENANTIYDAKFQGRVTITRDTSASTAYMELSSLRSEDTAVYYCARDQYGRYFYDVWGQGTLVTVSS
T8 sequence (VL, as listed by the source limits assumed, chain 2 of 2): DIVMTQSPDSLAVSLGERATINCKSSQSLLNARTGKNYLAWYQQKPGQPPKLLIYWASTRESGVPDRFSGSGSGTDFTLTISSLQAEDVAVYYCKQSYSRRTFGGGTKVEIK
Procedure: as §1, §2, §3

ADI-76361 = target: T9, ADI-76361; assay: SPR Carterra avidity, yeast anti-ID
T9 construct: anti-CD3 antibody made in CHO cells, captured by anti-human Fc
T9 sequence (VH, as listed by the source, chain 1 of 2): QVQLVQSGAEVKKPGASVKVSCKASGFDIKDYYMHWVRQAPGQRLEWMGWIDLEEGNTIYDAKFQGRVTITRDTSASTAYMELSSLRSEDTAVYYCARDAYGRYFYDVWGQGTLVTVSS
Procedure: as §1, §2, §3

ADI-48587 = target: T10, ADI-48587; assay: SPR Carterra avidity, yeast anti-ID
T10 construct: pH-dependent anti-CD3 antibody made in CHO cells
Procedure: as §1, §2, §3

ADI-70330 = target: T11, ADI-70330; assay: SPR Carterra avidity, yeast anti-ID
T11 construct: anti-CD3 antibody made in CHO cells, captured by anti-human Fc
T11 sequence (VH, as listed by the source limits assumed, chain 1 of 2): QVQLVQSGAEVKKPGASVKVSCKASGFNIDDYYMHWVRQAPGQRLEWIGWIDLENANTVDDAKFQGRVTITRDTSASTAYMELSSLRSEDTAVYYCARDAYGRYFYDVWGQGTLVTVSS
T11 sequence (VL, as listed by the source limits assumed, chain 2 of 2): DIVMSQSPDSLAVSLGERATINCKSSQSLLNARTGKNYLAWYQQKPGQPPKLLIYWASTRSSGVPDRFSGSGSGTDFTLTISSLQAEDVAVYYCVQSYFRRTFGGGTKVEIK
Procedure: as §1, §2, §3

ADI-26912 = target: T12, ADI-26912; assay: SPR Carterra avidity, yeast anti-ID
T12 construct: anti-CD3 antibody made in CHO cells, captured by anti-human Fc
T12 sequence (VH, as listed by the source, chain 1 of 2): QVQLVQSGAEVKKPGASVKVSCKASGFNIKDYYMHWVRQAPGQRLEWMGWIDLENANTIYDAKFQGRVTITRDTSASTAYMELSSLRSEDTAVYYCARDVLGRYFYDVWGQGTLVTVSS
Procedure: as §1, §2, §3

ADI-67450 = target: T13, ADI-67450; assay: SPR Carterra avidity, yeast anti-ID
T13 construct: anti-CD3 antibody made in CHO cells, captured by anti-human Fc
Procedure: as §1, §2, §3

ADI-26921 IgG = target: T14, ADI-26921 IgG; assay: SPR Carterra avidity, yeast anti-ID
T14 construct: anti-CD3 IgG
Procedure: as §1, §2, §3

ADI-50024 = target: T15, ADI-50024; assay: SPR Carterra avidity, yeast anti-ID
T15 construct: anti-CD3 antibody made in CHO cells, captured by anti-human Fc
T15 sequence (VH, as listed by the source limits assumed, chain 1 of 2): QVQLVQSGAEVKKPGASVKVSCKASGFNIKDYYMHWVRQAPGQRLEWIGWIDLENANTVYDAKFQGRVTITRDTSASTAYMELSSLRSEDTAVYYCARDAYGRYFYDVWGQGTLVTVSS
Procedure: as §1, §2, §3

ADI-74965 = target: T16, ADI-74965; assay: SPR Carterra avidity, yeast anti-ID
T16 construct: pH-dependent anti-CD3 antibody made in CHO cells
T16 sequence (VH, as listed by the source, chain 1 of 2): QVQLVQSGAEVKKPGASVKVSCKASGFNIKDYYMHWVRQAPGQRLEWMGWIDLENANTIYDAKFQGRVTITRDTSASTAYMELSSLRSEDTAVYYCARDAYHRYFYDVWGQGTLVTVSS
T16 sequence (VL, as listed by the source, chain 2 of 2): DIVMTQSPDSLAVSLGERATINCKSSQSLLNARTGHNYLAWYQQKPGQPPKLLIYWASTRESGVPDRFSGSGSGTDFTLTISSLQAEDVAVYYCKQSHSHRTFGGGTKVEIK
Procedure: as §1, §2, §3

ADI-26915 = target: T17, ADI-26915; assay: SPR Carterra avidity, yeast anti-ID
T17 construct: anti-CD3 antibody made in CHO cells, captured by anti-human Fc
T17 sequence (VH, as listed by the source, chain 1 of 2): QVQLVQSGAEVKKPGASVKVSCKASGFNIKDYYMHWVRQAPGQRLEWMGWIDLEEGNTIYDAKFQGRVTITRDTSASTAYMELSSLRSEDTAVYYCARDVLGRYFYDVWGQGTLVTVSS
Procedure: as §1, §2, §3

ADI-48592 = target: T18, ADI-48592; assay: SPR Carterra avidity, yeast anti-ID
T18 construct: pH-dependent anti-CD3 antibody made in CHO cells
T18 sequence (VH, as listed by the source, chain 1 of 2): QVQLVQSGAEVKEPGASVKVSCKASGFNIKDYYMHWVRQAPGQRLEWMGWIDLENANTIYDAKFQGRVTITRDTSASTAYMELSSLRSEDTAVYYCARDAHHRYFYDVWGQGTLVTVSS
T18 sequence (VL, as listed by the source, chain 2 of 2): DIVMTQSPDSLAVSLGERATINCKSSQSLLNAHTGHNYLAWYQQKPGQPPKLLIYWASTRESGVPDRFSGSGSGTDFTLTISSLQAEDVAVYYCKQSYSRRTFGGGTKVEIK
Procedure: as §1, §2, §3

ADI-76358 = target: T19, ADI-76358; assay: SPR Carterra avidity, yeast anti-ID
T19 construct: anti-CD3 antibody made in CHO cells, captured by anti-human Fc
T19 sequence (VH, as listed by the source, chain 1 of 2): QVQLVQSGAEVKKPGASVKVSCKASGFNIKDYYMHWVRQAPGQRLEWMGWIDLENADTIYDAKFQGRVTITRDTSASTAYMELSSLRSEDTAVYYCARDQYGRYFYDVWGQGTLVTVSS
Procedure: as §1, §2, §3

ADI-70327 = target: T20, ADI-70327; assay: SPR Carterra avidity, yeast anti-ID
T20 construct: anti-CD3 antibody made in CHO cells, captured by anti-human Fc
T20 sequence (VH, as listed by the source limits assumed, chain 1 of 2): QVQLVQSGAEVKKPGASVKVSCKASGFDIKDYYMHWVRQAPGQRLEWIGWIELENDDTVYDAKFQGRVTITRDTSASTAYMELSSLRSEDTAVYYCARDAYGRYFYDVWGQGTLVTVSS
Procedure: as §1, §2, §3

ADI-67445 = target: T21, ADI-67445; assay: SPR Carterra avidity, yeast anti-ID
T21 construct: anti-CD3 antibody made in CHO cells, captured by anti-human Fc
Procedure: as §1, §2, §3

ADI-48650 = target: T22, ADI-48650; assay: SPR Carterra avidity, yeast anti-ID
T22 construct: pH-dependent anti-CD3 antibody made in CHO cells
Procedure: as §1, §2, §3

CTL-62223 = target: T23, CTL-62223; assay: SPR Carterra avidity, yeast anti-ID
T23 construct: also called mosunetuzumab
T23 sequence (VH, as listed by the source, chain 1 of 2): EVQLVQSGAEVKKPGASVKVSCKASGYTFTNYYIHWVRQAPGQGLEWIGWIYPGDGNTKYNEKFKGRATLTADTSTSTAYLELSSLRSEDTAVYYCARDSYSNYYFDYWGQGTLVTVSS
T23 sequence (VL, as listed by the source, chain 2 of 2): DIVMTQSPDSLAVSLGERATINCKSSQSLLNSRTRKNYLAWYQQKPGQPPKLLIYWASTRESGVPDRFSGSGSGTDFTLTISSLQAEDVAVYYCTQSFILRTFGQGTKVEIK
Procedure: as §1, §2, §3

ADI-74968 = target: T24, ADI-74968; assay: SPR Carterra avidity, yeast anti-ID
T24 construct: pH-dependent anti-CD3 antibody made in CHO cells
T24 sequence (VL, as listed by the source, chain 2 of 2): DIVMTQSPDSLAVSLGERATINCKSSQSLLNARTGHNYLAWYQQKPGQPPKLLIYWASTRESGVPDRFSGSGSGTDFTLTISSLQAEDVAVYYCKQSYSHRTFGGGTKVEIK
Procedure: as §1, §2, §3

ADI-26909 = target: T25, ADI-26909; assay: SPR Carterra avidity, yeast anti-ID
T25 construct: anti-CD3 antibody made in CHO cells, captured by anti-human Fc
Procedure: as §1, §2, §3

ADI-76360 = target: T26, ADI-76360; assay: SPR Carterra avidity, yeast anti-ID
T26 construct: anti-CD3 antibody made in CHO cells, captured by anti-human Fc
Procedure: as §1, §2, §3

ADI-70326 = target: T27, ADI-70326; assay: SPR Carterra avidity, yeast anti-ID
T27 construct: anti-CD3 antibody made in CHO cells, captured by anti-human Fc
Procedure: as §1, §2, §3

ADI-26906 IgG = target: T28, ADI-26906 IgG; assay: SPR Carterra avidity, yeast anti-ID
T28 construct: anti-CD3 IgG
T28 sequence (VH, as listed by the source limits assumed, chain 1 of 2): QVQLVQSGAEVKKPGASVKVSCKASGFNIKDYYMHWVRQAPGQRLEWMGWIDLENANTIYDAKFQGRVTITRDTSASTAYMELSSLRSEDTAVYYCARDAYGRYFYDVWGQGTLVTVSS
Procedure: as §1, §2, §3

ADI-67447 = target: T29, ADI-67447; assay: SPR Carterra avidity, yeast anti-ID
T29 construct: anti-CD3 antibody made in CHO cells, captured by anti-human Fc
Procedure: as §1, §2, §3

ADI-76357 = target: T30, ADI-76357; assay: SPR Carterra avidity, yeast anti-ID
T30 construct: anti-CD3 antibody made in CHO cells, captured by anti-human Fc
Procedure: as §1, §2, §3

ADI-26916 IgG = target: T31, ADI-26916 IgG; assay: SPR Carterra avidity, yeast anti-ID
T31 construct: anti-CD3 IgG
Procedure: as §1, §2, §3

ADI-74966 = target: T32, ADI-74966; assay: SPR Carterra avidity, yeast anti-ID
T32 construct: pH-dependent anti-CD3 antibody made in CHO cells
Procedure: as §1, §2, §3

ADI-76362 = target: T33, ADI-76362; assay: SPR Carterra avidity, yeast anti-ID
T33 construct: anti-CD3 antibody made in CHO cells, captured by anti-human Fc
T33 sequence (VH, as listed by the source, chain 1 of 2): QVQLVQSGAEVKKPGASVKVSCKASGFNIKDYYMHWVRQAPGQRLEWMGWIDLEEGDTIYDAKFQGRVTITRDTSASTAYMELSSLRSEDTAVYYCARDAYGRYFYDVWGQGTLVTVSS
Procedure: as §1, §2, §3

ADI-22523 Fab = target: T34, ADI-22523 Fab; assay: BLI; tip anti-ID IgG, solution ADI-22523 Fab
T34 construct: anti-CD3 Fab by papain digestion of the IgG
Procedure: as §4

ADI-48576 = target: T35, ADI-48576; assay: SPR Carterra, yeast anti-ID
T35 construct: pH-dependent anti-CD3 antibody made in CHO cells
Procedure: as §1, §2, §3

CTL-62228 = target: T36, CTL-62228; assay: SPR Carterra, yeast anti-ID
T36 construct: also called glofitamab
Procedure: as §1, §2, §3

CTL-62227 = target: T37, CTL-62227; assay: SPR Carterra, yeast anti-ID
T37 construct: also called odronextamab
Procedure: as §1, §2, §3

CTL-62240 = target: T38, CTL-62240; assay: SPR Carterra, yeast anti-ID
T38 construct: also called ONO-4685
T38 sequence (VH, as listed by the source, chain 1 of 2): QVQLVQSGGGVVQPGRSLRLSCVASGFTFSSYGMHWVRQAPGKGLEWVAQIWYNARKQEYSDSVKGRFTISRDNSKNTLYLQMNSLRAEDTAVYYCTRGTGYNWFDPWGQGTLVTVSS
T38 sequence (VL, as listed by the source, chain 2 of 2): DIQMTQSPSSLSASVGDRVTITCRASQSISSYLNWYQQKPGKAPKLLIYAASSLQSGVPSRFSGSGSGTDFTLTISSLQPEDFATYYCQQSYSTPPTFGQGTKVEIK
Procedure: as §1, §2, §3

B1: ADI-30242 (antibody, V domains shown)
VH: QVQLVQSGAEVKKPGSSVKVSCKASGGTFSSYAISWVRQAPGQGLEWMGGIIPIFGTANYAQKFQGRVTITADESTSTAYMELSSLRSEDTAVYYCARGAPNYYGSGGYDDGWFDPWGQGTLVTVSS
VL: EIVLTQSPGTLSLSPGERATLSCRASQSVSSSYLAWYQQKPGQAPRLLIYGASSRATGIPDRFSGSGSGTDFTLTISRLEPEDFAVYYCQQFGRDPTFGGGTKVEIK
notes: anti-ID IgG
Kd (ADI-26919): 3.5 nM
Kd (ADI-26924): 5.3 nM
Kd (ADI-76359): 3.7 nM
Kd (ADI-26943): 6.2 nM
Kd (ADI-26920 IgG): 4.2 nM
Kd (ADI-74967): 5.6 nM
Kd (ADI-22523 IgG): 0.57 nM
Kd (ADI-26913 IgG): 24 nM
Kd (ADI-76361): 15 nM
Kd (ADI-48587): 43 nM
Kd (ADI-70330): 40 nM
Kd (ADI-26912): 33 nM
Kd (ADI-67450): 56 nM
Kd (ADI-26921 IgG): 21 nM
Kd (ADI-50024): 11 nM
Kd (ADI-74965): 45 nM
Kd (ADI-26915): 56 nM
binding result (ADI-48592): binds
Kd (ADI-76358): 42 nM
Kd (ADI-70327): 45 nM
Kd (ADI-67445): 11 nM
Kd (ADI-48650): 44 nM
Kd (CTL-62223): 31 nM
Kd (ADI-74968): 36 nM
Kd (ADI-26909): 17 nM
Kd (ADI-76360): 11 nM
Kd (ADI-70326): 45 nM
Kd (ADI-26906 IgG): 5.9 nM
Kd (ADI-67447): 8.4 nM
Kd (ADI-76357): 22 nM
Kd (ADI-26916 IgG): 35 nM
Kd (ADI-74966): 25 nM
Kd (ADI-76362): 27 nM
Kd (ADI-22523 Fab): 37.4 nM
binding result (ADI-48576): no binding (tested: up to 200 nM)
binding result (CTL-62228): no binding (tested: up to 200 nM)
binding result (CTL-62227): no binding (tested: up to 200 nM)
binding result (CTL-62240): no binding (tested: up to 200 nM)

— patent US20250019439A1 (Adimab, published 2025)
